The target in assay [1] is Ad5/3L-GFP chimeric adenovirus vector (human adenovirus serotype 5; human adenovirus serotype 3) (UniProt P11818).
Assay [2] deals with Desmoglein 2 (DSG2) of human cells (human) (UniProt Q14126).
For assay [3] the target is unchanged. The source holds these as a separate data set.
The target is the same in assay [4]. The source holds these as a separate data set.
Assay [5] shares this target. The source holds these as a separate data set.
For assay [6] the target is unchanged. As to the kind of experiment: cell-based or functional assay.
In assay [7] the target is Recombinant human DSG2 protein (desmoglein 2) (human) (UniProt Q14126). The experiment in a line: SPR, DSG2 immobilized; summary table of FIG. 13B. (In general: Surface plasmon resonance follows binding to a sensor surface in real time, without labels.)
Assay [8] has the same target. The experiment in a line: SPR, DSG2 immobilised, PtDd injected at 3 mg/ml (so in the source).
Assay [9] has the same target. As to the kind of experiment: SPR (BIAcore 3000), recombinant human DSG2 immobilised on CM4 chip, PtDd injected.
The target is the same in assay [10]. The experiment in a line: SPR, DSG2 immobilized; summary table of FIG. 13B (no unit in the table, RU from the axis of 13B).
The target in assay [11] is Desmoglein 2 (DSG2) of human cells (human) (UniProt Q14126). As to the kind of experiment: competition of 3H-Ad3 attachment to HeLa cells after pre-incubation with the named protein; the number is the Ad3 still bound (PBS: 512).
Assay [12] addresses Recombinant human DSG2 protein (desmoglein 2) (human) (UniProt Q14126). The experiment in a line: SPR, DSG2 immobilised, Ad3-K/S/Kn injected at 10 mg/ml (so in the source).

Read-outs that look alike come from different tables or passages of the source.

Sequence of Recombinant human DSG2 protein (desmoglein 2) (human) (Q14126 50-609 limits assumed): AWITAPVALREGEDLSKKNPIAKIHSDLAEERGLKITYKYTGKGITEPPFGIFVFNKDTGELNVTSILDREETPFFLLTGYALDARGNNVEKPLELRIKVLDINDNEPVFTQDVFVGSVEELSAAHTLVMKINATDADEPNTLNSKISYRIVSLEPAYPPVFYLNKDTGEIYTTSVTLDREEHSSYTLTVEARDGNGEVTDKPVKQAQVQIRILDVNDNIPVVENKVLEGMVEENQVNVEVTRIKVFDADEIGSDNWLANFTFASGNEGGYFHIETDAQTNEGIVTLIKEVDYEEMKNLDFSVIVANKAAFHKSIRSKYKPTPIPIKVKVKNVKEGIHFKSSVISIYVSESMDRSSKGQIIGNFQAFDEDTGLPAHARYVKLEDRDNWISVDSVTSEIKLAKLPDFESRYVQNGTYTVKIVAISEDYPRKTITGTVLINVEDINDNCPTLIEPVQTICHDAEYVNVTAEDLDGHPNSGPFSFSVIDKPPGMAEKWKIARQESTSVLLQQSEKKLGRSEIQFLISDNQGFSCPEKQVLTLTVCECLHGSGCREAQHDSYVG
Sequence of Desmoglein 2 (DSG2) of human cells (human) (Q14126 50-1118): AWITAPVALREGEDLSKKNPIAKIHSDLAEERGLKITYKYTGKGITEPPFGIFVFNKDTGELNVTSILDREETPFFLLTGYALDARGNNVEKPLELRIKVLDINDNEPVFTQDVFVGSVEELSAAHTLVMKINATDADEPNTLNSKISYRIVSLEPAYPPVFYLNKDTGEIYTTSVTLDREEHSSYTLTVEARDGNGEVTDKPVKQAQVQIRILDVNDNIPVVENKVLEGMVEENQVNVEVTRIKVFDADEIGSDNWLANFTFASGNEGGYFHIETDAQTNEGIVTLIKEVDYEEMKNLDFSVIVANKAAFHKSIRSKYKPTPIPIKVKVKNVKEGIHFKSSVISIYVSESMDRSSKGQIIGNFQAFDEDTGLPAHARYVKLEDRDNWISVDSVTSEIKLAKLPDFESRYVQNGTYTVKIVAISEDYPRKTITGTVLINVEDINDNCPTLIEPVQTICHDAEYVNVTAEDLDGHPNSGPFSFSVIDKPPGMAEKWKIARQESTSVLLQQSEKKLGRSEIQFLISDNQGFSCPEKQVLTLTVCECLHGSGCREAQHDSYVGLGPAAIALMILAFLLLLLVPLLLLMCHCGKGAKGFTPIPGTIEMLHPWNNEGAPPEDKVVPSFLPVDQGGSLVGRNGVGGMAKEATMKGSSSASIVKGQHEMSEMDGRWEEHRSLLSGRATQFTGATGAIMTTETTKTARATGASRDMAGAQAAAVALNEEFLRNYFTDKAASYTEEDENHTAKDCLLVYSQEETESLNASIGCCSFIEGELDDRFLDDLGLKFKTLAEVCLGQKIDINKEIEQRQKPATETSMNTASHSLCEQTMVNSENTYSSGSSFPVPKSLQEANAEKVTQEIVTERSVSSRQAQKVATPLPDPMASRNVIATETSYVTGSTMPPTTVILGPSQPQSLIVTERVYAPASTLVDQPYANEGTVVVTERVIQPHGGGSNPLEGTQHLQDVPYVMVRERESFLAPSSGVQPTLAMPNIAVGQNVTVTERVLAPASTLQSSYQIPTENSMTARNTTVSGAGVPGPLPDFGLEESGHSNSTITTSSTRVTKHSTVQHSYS
Sequence of Recombinant human DSG2 protein (desmoglein 2) (Q14126 50-609 limits assumed): as the sequence (Q14126 50-609 limits assumed) above

With “Recombinant human DSG2 protein (desmoglein 2) (from UniProt Q14126 50-609) (receptor)”, in [1], the IC50 (read off the curve), Ad5/3L-GFP transduction of HeLa cells (GFP MFI) was 1 mg/L.

The Kd is the constant that tells how readily two partners part at equilibrium. Consider “Recombinant Ad3 penton-dodecahedra (PtDd)”, for which the IC50 (read off the curve), Ad3-GFP infection of HeLa cells (% of GFP+ cells) in [2] came out at 0.7 mg/L. In addition, in [3], the IC50 (read off the curve), Ad3-GFP transduction of HeLa cells (GFP MFI) was 0.2 mg/L; the IC50 (read off the curve), Ad5/3L-GFP transduction of HeLa cells (GFP MFI) is 0.5 mg/L; the IC50 (read off the curve), Ad5/3S-GFP transduction of HeLa cells (GFP MFI) is 0.2 mg/L. For the same substance, in assay [4], the IC50 (read off the curve), Ad3-GFP transduction of HeLa cells (% of GFP+ cells) was 1 mg/L. Moreover, the IC50 (read off the curve), Ad3-GFP transduction of HeLa cells (% of GFP+ cells) in [5] was determined as 2 mg/L. For the same substance, the Herceptin cytotoxicity on BT474 cells (WST-1 viability) in assay [6] came to 2 fold. Besides, in [7], the % of remaining binding after 150s was found to be 98%. In addition, the SPR response in assay [8] came out at 100 RU. Also, the Kd in assay [9] came to 2.5 nM. Further, in assay [10], the Binding at the end of association is 133 RU and the Remaining binding after 150s dissociation is 130 RU. Further, in assay [11], the Bound 3H-Ad3 VP/cell (with this competitor) is 12 VP/cell.

Recombinant Ad3 base dodecahedra (BsDd) gave a Bound 3H-Ad3 VP/cell (with this competitor) in assay [11] of 556 VP/cell.

Consider “Ad3-K/S/Kn, junction opener 1 (JO-1) (ligand; other documents disagree on this pair)”, for which the % of remaining binding after 150s in assay [7] was 85.9%. Further, the SPR response in assay [12] stood at 100 RU. In addition, in assay [10], the Binding at the end of association stood at 113 RU and the Remaining binding after 150s dissociation stood at 96.9 RU.

The values above are taken from patent US20110305634A1.
